Data from the DeepSol protein solubility set.

Test: soluble on expression in E. coli; label from the status in PepcDB or PDB records

| Sequence | soluble on expression in E. coli |
| --- | --- |
| NPSTTKAPLADYLAHLPLAEEERERLGESASFSELHARLAGAEGAAADAGGDPALASVRARLQLGTPELDDAEMFGVDAQGRTFLKISPPIRRTKVIPEPWRTNILVRGWRRLTGRSNPPKPKRALPRARWQ | not soluble |
| MESRESSKDRLLILPSMGESYTEYVDSYLNLELLERGERETPIFLESLTRQLTQKIYELIKTKSLTADTLQQISDKYDGVVAENKLLFLQRQYYVDDEGNVRDGRNNDKIYCEPKHVYDMVMATHLMNKHLRGKTLHSFLFSHFANISHAIIDWVQQFCSKCNKKGKIKPLKEYKR | soluble |
| AVGTPITISVPSLPYANSASEIVLSQLRDIGFDVRLESTEFPSVWLSKVYKAKDYDMSVVAHVEARDIPNLFGNPDYYLGFDDEQVRELLAQADSGDADSYVSTMKKVVNRIMDQAGADTLFNLPNIVVTQPDVSGVPTNLVADGLVVSNISRSED | not soluble |
| HMDPDELPLDEHCERLPYDASKWEFPRDRLNLGKPLGRGAFGQVIEADAFGIDKTATCRTVAVKMLKEGATHSEHRALMSELKILIHIGHHLNVVNLLGACTKPGGPLMVIVEFCKFGNLSTYLRSKRNEFVPYKTPEDLYKDFLTLEHLICYSFQVAKGMEFLASRKCIHRDLAARNILLSEKNVVKICDFGLARDIYKDPDYVRKGDARLPLKWMAPETIFDRVYTIQSDVWSFGVLLWEIFSLGASPYPGVKIDEEFCRRLKEGTRMRAPDYTTPEMYQTMLDCWHGEPSQRPTFSELVEHLGNLLQANAQQD | soluble |
| MLEHLIKISRRNWSSLKVIILAGGRGKRITLFKPFLVVCGKPLISWAFDAVNKLSDKVYLGINQSHPLFTIFKHSIFKIFPTPDISYENDVKYVVESLGPPILVLPVDIAFINNNIINNLIERCAVDMCTLKSYGSYLGVTYWTGLNFSNYTDIEVKEKLYNINTWEDYIKANKECNILLEHHHHHH | soluble |
| NEIVSGKLRIAASASFGAALLSQTLIEFRLQHPQVSVEVIFTEAPLDLIEAGFDIAFYFTDTPPEGYVGHQLRTLHCKPIAHRSYLADKPNVSTPEDLGDLEHILYKSRDLVLDKWTFTHKQTQQQCRIELESTLSFNLVQSMLDATLAGCGVAMLDEFALAKLESAQKEQLVSLLPDWQTDAILPLYLLYPKREHLPRRTRAFIDHFRNIYSVGE | not soluble |
| MGSDKIHHHHHHMAIITRIEVQKRNNERYNIFIHQNGQDVYAFSVDEQVLIKQGLRKGLDIDAEQMKQILYEDEVQKTFNLALHYLSYRMRSVHEVRTYLKKKDREEPIIEHVLHRLTEQRLLDDHAFAEAFIQTKRATTSKGPLKLKQELAEKGVSEKTIEGALTTFSYEEQVEQVKAWLEKQKGRTFKGSSLAWKQKLSRQLLAKGYTSPVIEEAFADVPIKQEEEEEWEALKAFGEKAMRKYAGKKTGWELQQKVKQALYRKGFSLEMIERYLND | not soluble |
| MSDESANPSCISHLSIGTNDFPRARAFYDAVMAALGCKVILEYPGAVAYGKLYPEFWVQAPIDGRPASVGNGSHVGFFADSKAQVDAFHAAALAAGARDEGAPGPRPLYGEPYYGCFIRDLDGHKVEASYWDMSQGFDAHDHAH | not soluble |
| MGSDKIHHHHHHMTLLIVGATGTLGRQVARRAIDEGYKVRCLVRSPKRAAFLKEWGAELVRGDLCQPQTLAEALEGVTAVIDAATSRATDSLTIKQVDWEGQIALIQAAKAASVERFIFFSIIDADKYPEVPLMEIKRCTELFLAESGINYTVLRLAGFMQGLIGQYGIPILEGQPVWVTGASSPVAYMDTLDIAKFAVRALSVPETEKQAFPVVGTRAWSAEEIINLCERLSGKEAKVRRMPINLLRAVRGLAKFFQWGWNIADRLAFTEVLASGRPLNASMDEVYTVFGLEKEQSTTLESYLQEYFSRILKKLKQLDYEKTKTKKQKDKKTPFKKVNS | not soluble |
| MSLEYKQASIFDNEVKKNKPLADRMRPKTLDEFVGQEHLLGKGKLLRELIEKDNITSMILWGPPGVGKTTLAMIIANMTNSKFITFSAVLSGIKEIKEIMAKAELDAMYGTRTVVFIDEIHRFNKAQQDAFLPHVEKGNIILIGATTENPSFEVNSALLSRSKVFVMKPLTEEDLLILLKRALKDEQNGFGMYKIGITDEQLKKIALFANGDARVALNTLEIAVMGAKVIEGERIVTDDILADAMQKKTLLYDKQGEEHYNLISAFHKSLRNSDWDAAVYWLARMLEAGEDPLYIARRMIRFASEDIGLADPQALEMAVAAYNACHYIGIPECSVNLAQVAIYLALAPKSNAVYMAYNKAKKDAEETIAESVPIHLRNAPTKLMKELGYGKGYKYAHDFEEKVTDMQCLPDNLKDRKYYVPTDSGFEKDIQKRLEQISNLKKKGEGHHHHHH | soluble |
| MSLCGIVAFYYPEINDKQAAIGKMMATIQHRGPSSDGMYTNDKVALGFRRLSIIDLRCGSQPIYNEDRSRAIIFNGEIYNFKPLREELIKAGHTFSTKADTEVILHGYEEWGMDGILKRVRGMFAFIIWDDNTQTMYGARDFFGIKPMYYQDVDGHLLVGSELKSFLAFPHFKKELNTEAVKPYLMNQYNDLKETFFKGVYRFQPGHWFEYKDGKMKTHQYWDAEYKDNNLSFEETVKKINEDLKETVDLYRNADVKVGAFLSEGVDSSFLTALLDPDEVFSIGFDDNTYDEASKAKALADINGWHFYADKVYSEEAMRDFPEMQYHMDEPDANPSIIPLWYLCKLARKHVTVALSGEGADELFAGYVNYGMHTHNNVIKVFTDKLKKLPKGKRVKLAHKIKKMPNFPGKVHLYTNLAEPSEFYVGQSVIYDMDYPTIFTSKDANAVLQPSYRNKLTVNGNYQEDFKKVKDLDNVKQMQYIDLHHFMLNDIEQKADKISMAHSLELRVPYLDVKIAKLANSIPSKYLVNKYDTKYALRKASEQVLPDEWAKRPKLGFPTPIKQWLQEERFYKQVRDLFSEDFVNDIFEQKKILDLLDENYNGDGSHRRQIWVIYTFLVWYKLFFVDYEEGHHHHHH | soluble |
| VTPQYQATSTIYVLGNSVSMSGVDLTLSKQLTADFSVLAKSRPVMNKIEEKLKADYKYKDLNYSVEQLQGMITIENPSGTSLMRMTATNSDAQLAADIANAAADAVAERISEVMVIDKPSSVEEAEKPNYPVSPNVKKNM | not soluble |
| MGSDKIHHHHHHMSKIGETPLDMGLKDAIIGIFIWNKEKGIFEPFENRLRKKARALLEYYTDLANDELKPYVISKTIIDNVVDEIKDKTLIPLPNEPLRVAFPNCTLEWKISHGRYVPSFVLAEERTPEHFAFHYIPHKIHLEELVKINEEVLSARDIPIDLIEDLARRLCPKSLEVFKQWANEKWVTLFEIIGYTLFPKIEFRKAFMILGPRGTGKSTFINLIKKLLGRGNVVNIPLHILFGDKNRFVLAELYHKLVNAVSETKEYNLDDMDTLKVLTGGDRITADVKFKDPITFTPYAKLVIASNKPPTIRDKNDMAFWHRWLIIEFPNQFEDNTAWGDKTFTEDELEGILTVSILAFSRVLLHGKFDFEQTEEEVRGIWLSTIDYVYKFVKEKLKHGEIMITKNADDYVRVKELYRMYLEYCSTNGYNATTYKGFVRRLRDYFNLTVVMKNVEGKRFRAVVGIKINTVQTNETTGGDYGEFLNYILKNNHMIKEFADLVRDFGSTEKANVFIDFCTKKNMCFSRGIDAWEISIQPRGFSFL | not soluble |
| GQHTLKQFAADSALTTTTPLCSEVPLFDINALGDWTYLGTSLPAKFAKLFASILHCIDDEYFLITPVEKVRVQVEDAPLLIVDFERAQPHSLLNVSTSIGTLHHNVDIKQMKLTDDSVYLPLERGLWGKLGRACYYNFVNEFNLSDLNEQ | soluble |
| MNPVHILAKKGEVAERVLVVGDPGRARLLSTLLQNPKLTNENRGFLVYTGKYNGETVSIATHGIGGPSIAIVLEELAMLGANVFIRYGTTGALVPYINLGEYIIVTGASYNQGGLFYQYLRDNACVASTPDFELTNKLVTSFSKRNLKYYVGNVFSSDAFYAEDEEFVKKWSSRGNIAVEMECATLFTLSKVKGWKSATVLVVSDNLAKGGIWITKEELEKSVMDGAKAVLDTLTS | soluble |
| MSEDILPITISLAGEKDTIRLGEDLALALKPGDCLTLIGDLGAGKSTLARAFIRAMADEPDLEVPSPTFTIIQTYTTRIPVAHLDLYRLSDVSELDELGIDEMLEDGICLIEWPDIAAEVLPPAQTITLQLTHSGEGRVAVIEAPAQQKARLDRVFAIREFLAKNGRGDATRRFLSGDASTRAYETISTDGPDLILMDWRRPMRGAIVADGKTYAEIVHLAQDARSFVAIGDYLRNSGFRAPEILAADIDQGILLLEDLGREGVLAADGTPIEERYLQSVACLATLHQTPRPALLPMRDGSTYDIPSFDRQAMKIEVSLLVEWYLPHKRGKALTDGEKQDYYAIWDGLIDALAGCETGLLLRDFHSPNILWQAQNSGIGQVGLIDFQDAMIGPTAYDLASIVQDARVTIPPELQTRLMSHYLNSRKATPAFDEAAFLKAFAIMSAQRNCKLAGIWVRLLERDKKPGYMKHMPRTFRYLADALSHPELAPLREWCVRMGMDFNDLEHHHHHH | soluble |
| MADRPIEIVDRQNVLTVHLPGTYTVMYDARYCYVSYIPVSETVAEFTLTGFKYPLTNCHISRGSTLCISNELIQSSGTFSFSEGILMMIRSSDSLEHHHHHH | not soluble |
| MGSDKIHHHHHHMENRKHTSLKDLAQALGVSIPTVSRALKDSPEISRELCAKAKKLAKEMNYRPNPFAMSLRKNAPRIIGVIVPDIVTHFFASILNGIENMAIDNGYFVIITTSHESFEHEKRNIENLVNMRVEGIIACLSQETTDFSHFAALKEINMPLILFDRVCLTDQFSSVIADGAQSAQMATQHLLDNGSKRVAFIGGANHLDIVKRRKHGYLEALRDNRIPIEKELVVCRKIDYEEGQIATETLLSLPQPPDAILAMNDTLAFAAMEVIKRHGLRIPDDIAIIGYTDEQHANYVEPKLSAVSHQTYKMGETACQLLIDQIKGDRTVKQVVIPTHLQIRESSIKENNKKNAVST | not soluble |
| MLIRSETPADQRAIFDVTQAAFRGHPHSEQTEAYIVQALRAAGALTLSLVAELDARVVGHAAFSPVQISDGSPSWFGLGPVSVDPAHQGRGIGTALIEHGLARLQARGAAGCVLVGEPAYYGRFGFRPEPGLVLPDMPPTHFLALTFGAPARGTVTYHPGFAARDA | not soluble |
| MLTLAEKLLLIGLNDETGKVHYQASTALPYGLAGAVLADLMLLGKVELQGKNIVVVDPKPVGQPIFDKALHIINKTPRKRNAKYWVQRLKRDLKTLRQDVLTLLIEQGILKEEKRKILGLFETRTYPAVDGEMEEQVKEKLRVLVLQPTEIEENKELAQERTLVLLSLVNACDLLRQVFDRQEARVVKKQVKHLTKDVPVSKAVKEMVDAINASVVLAITSAAVVTSSSSSSNLEHHHHHH | soluble |
| MEKLVAYKRMPLWNKQTMPEAVQQKHNTKVGTWGKITVLKGALKFIELTEEGEVLAEHLFEAGADNPMAQPQAWHRVEAATDDVEWYLEFYCKPEDYFAKKYNTNPVHSEVLEAMQTVKQGKALDLGCGQGRNSLFLAQQDFDVTAVDQNGLALEILQSIVEQEDLDMPVGLYDINSASIEQEYDFIVSTVVLMFLQADRIPAIIQNMQEKTSVGGYNLIVCAMDTEDYPCSVNFPFTFKEGELADYYKDWELVKYNENPGHLHRRDENGNRIQLRFATLLAKKIK | not soluble |
| GPGSMVTPEQAALIEGAFRSMDRDGTGLVRLEDIFRVFDDSRHPRVRDGELAPAATRDMLMHQFGATAQAHGGVSFDVFMRFHERMAEDAAVAKVNDKELFLTDTIIGVWRLGTLLQPTLIRPLFPVNVRPSGLYATQYMSLVWVDEVAGPGSFVVHVVRDVVRPIFSRGDLPPQLRGMFAYPTELAGMKIIEERLQIATQRWLDFVWEYEEGKHAAVPGIISARVDPDTLPQYLRDMIVEHDVAKAIPSLFFVPTSVAVNPMYKRSSEEYGYGVPEEVKRMSRWKDLTYSGQACGLIYHGRVGKFTRERLNAPVQDVASAMNI | not soluble |
